# According to the nanobody polyreactivity screen of Harvey et al. (2022):
# Experiment: yeast display, Sf9 membrane polyspecificity reagent, FACS + sequencing; frameworks hold sequencing errors
# Summary of the method: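 A nanobody's polyreactivity label depends on the gate it was sorted from. Yeast display cells were stained with 10% biotinylated, detergent-solubilized Sf9 membrane reagent for 1 hour at 4 °C, enriched on streptavidin microbeads and sorted by FACS. The low and high (top ~1%) gates were set on anti-HA fluorescence for expression and streptavidin fluorescence for reagent binding.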
row,Sequence,polyreactivity (PSR sort gate)
1,QVQLVESGGGLVQAGGSLRLSCAASGFTFRAYAMGWYRQAPGKERELVAAISTGGGSTYYADSVKGRFTISRDNEKNTVYLQMNSLKPEDTAVYYCNALPQRRYYYWGQGTQVTVSS,high polyreactivity
2,QVQLVESGGGLVQAGGSLRLSCAASGFTFRAYTMGWYRQAPGKERELVAAITYSGGRTYYADSVKGRFTISRDNAKNTVYLQMNSLKPEDTAVYYCAKRGWALSEYYYWGQGTQVTVSS,high polyreactivity
3,QVQLVESGGGLVQAGGSLRLSCAASGFTFRENAMGWSRQAPGKERELVAAISSSGGSTYYADSVKGRFTISRDNAKNTVYLQMNSLKPEDTAVYYCAADATLSFDYWGQGTQVTVSS,high polyreactivity
4,QVQLVESGGGLVQAGGSLRLSCAASGFTFRFYAMGWYRQAPGKERELVAVITSRGTRTYYADSVKGRFTISRDNAKNTVYLQMNSLKPEDTAVYFCAKDFAFNGGISKYDYWGQGTQVTVSS,high polyreactivity
5,QVQLVESGGGLVQAGGSLRLSCAASGFTFRFYGMGWYRQAPGKERELVAAISSRGTTTYYADSVKGRFTISRDNAKNTVYLQMNSLKPEDTAVYYCNKEYTTYGYDLEYDYWGLGTQVTVSS,low polyreactivity
6,QVQLVESGGGLVQAGGSLRLSCAASGFTFRGNAMGWYRQAPGKERELVAAITSSDDSTYYADSVKGRFTISRDNAKNTVYLQMNSLKPEDTAVYYCAVYFFSFWGQGTQVTVSS,low polyreactivity
7,QVQLVESGGGLVQAGGSLRLSCAASGFTFRGYAMGWYRQAPGKERELVASISYRGDSTYYADSVKGRFTISRDNAKNTVYLQMNSLKPADTAGYYCNKLLASYYLPGFDYWGQGTQVTVSS,low polyreactivity
8,QVQLVESGGGLVQAGGSLRLSCAASGFTFRGYAMGWYRQAPGKERELVAVISSGGSTNYADSVKGRFTISRDNAKNTVYLQMNSLKPEDTAVYYCNAGYWFRYYGGDYYLGGLNYYWGQGTQVTVSS,low polyreactivity
9,QVQLVESGGGLVQAGGSLRLSCAASGFTFRGYDMGWYRQAPGKERELVATISSGGRTYYADSVKGRFTISRDNAKNTVYLQMNSLKPEDTAVYYCAAPRFGRLAFDFWGQGSQVTVSS,low polyreactivity
10,QVQLVESGGGLVQAGGSLRLSCAASGFTFRGYTMGWYRQAPGKERELVAAITRSGTTTYYADSVKGRFTISRDNAKNTVYLQMNSLKPEDTAVYYCATAKFYRQYGYWGQGTQVTVSS,high polyreactivity
11,QVQLVESGGGLVQAGGSLRLSCAASGFTFRHNTMGWYRQAPGKERELVAAISIGGRTYYADSVKGRFTISRDNAKNTVYLQMNSLKPEDTAVYYCAKLSRGQSPGYDYWGQGTQVTVSS,high polyreactivity
12,QVQLVESGGGLVQAGGSLRLSCAASGFTFRHYAMGWYRQAPGKERELVARIRGGGVSTYYADSVKGRFTISRDNAKNTVYLQMNSLKPEDTAVYYCNAVYESWWGDYDYWGQGTQVTVSS,high polyreactivity
13,QVQLVESGGGLVQAGGSLRLSCAASGFTFRIYAMGWYRQAPGKERELVAAISWAGGSTFYADSVKGRFTISRDNAKNTVYLQMNSLKPEDTAVYYCAADTAFHYDYWGQGTQVTVSS,low polyreactivity
14,QVQLVESGGGLVQAGGSLRLSCAASGFTFRLNAMGWYRQAPGKEREMVAAISSSGGRTYYADSVKGRFTISRDNAKNTVYLQLNSLKPEDTAVYYCAADYTTRYLDGVVARGYYWGQGTQVTVSS,high polyreactivity
15,QVQLVESGGGLVQAGGSLRLSCAASGFTFRLYAMGWYRQAPGKERELVATITRRGGITTYADSVKGRFTISRDNAKNTVYLQMNSLKPEDTAVYYCNAGKYVYATSQYDYWGQGTQVTVSS,high polyreactivity
16,QVQLVESGGGLVQAGGSLRLSCAASGFTFRLYTMGWYRQAPGKERELVAAITYSGDSTYYADSVKGRFTISRDYAKNTVYLQMNSLKPEDTAVYYCAARKYYARYYWGQGSQVTVSS,high polyreactivity
17,QVQLVESGGGLVQAGGSLRLSCAASGFTFRNYAMGGYRQAPGKERELVAAISKSGGSTYYADSVKGRFTISRDNAKNTVYLQMNSLNPEDTAVYYCATDYLYVYGFEYYYWGQGTQVTVSS,high polyreactivity
18,QVQLVESGGGLVQAGGSLRLSCAASGFTFRQYAMGWYRQAPGKEREFFADITFSGDNTRYADSVKGRFTISRDNAKNTVYLQMNSLKPEDTGVYYCNADYLVSWLQFDYWGQGTQVTVSS,low polyreactivity
19,QVQLVESGGGLVQAGGSLRLSCAASGFTFRRNAMGWYIQAPGKERELVAAINVRDGSTYYADSVKGRFTISRDNAKNTVYLQMNSLKPEDTAVYYCAAEFFQGYYWYYYWGQGTQVTVSS,high polyreactivity
20,QVQLVESGGGLVQAGGSLRLSCAASGFTFRRNAMGWYRKAPGKERELVAAISSSGGSTNYADSVKGRFTISRDNAKNTVYLQMNSLKPEDTAVYYCNRGSRRLGSIVWYDYWGQGTQVTVSS,high polyreactivity
21,QVQLVESGGGLVQAGGSLRLSCAASGFTFRRNAMGWYRQAPGKERELVAAISRGGSSTYYADSVKGRFTISRDNAKNTVYLQMNSLKPEDTAVYYCGARIPNQQGYGYWGQVTQVTVSS,high polyreactivity
22,QVQLVESGGGLVQAGGSLRLSCAASGFTFRRYAMGWYRQAPGKEREFVAAITTRGSNTYYADSVKGRFTISRDNAKNTVYLQMNSLKPEDTAVYYCAASYYPPGHYDYWGQGTQVTVSS,high polyreactivity
23,QVQLVESGGGLVQAGGSLRLSCAASGFTFRRYAMGWYRQAPGKERELVAAISTSGGRTYYADSVKGRFTISRDNAKNTVYLQMNSLKPEDTAVYYCAARIPKQRDVRGSGMNYWGQGTQVTVSS,high polyreactivity
24,QVQLVESGGGLVQAGGSLRLSCAASGFTFRRYAMGWYRQAPGKERELVAAITRGGSTYYADSVKGRFTISRDNAKNTVYLQMNSLKPEDTAVYYCAARGGTRYSTRSYGYWGQGTQVTVSS,high polyreactivity
25,QVQLVESGGGLVQAGGSLRLSCAASGFTFRRYAMGWYRQAPGKERELVAGITGRGGSTYYADSVKGRFTISRDNAKNTVYLQMNSLKPEDTAVYYCNKPRAARGYLTGQLDYWGQGTQVTVSS,high polyreactivity
26,QVQLVESGGGLVQAGGSLRLSCAASGFTFRRYAMGWYRQAPGKERELVASIASSTGGSTYADSVKGRFTISRDNAKNTVYLQMNSLKPEDTAVYSCAADWSRFYLGHRTGSGYEYWGQGTQVTVSS,low polyreactivity
27,QVQLVESGGGLVQAGGSLRLSCAASGFTFRSNAMGWYRQAPGKARELVAAISYSGDSTYYADSVKGRFTISRDTAKNTVYLQMNSLKPEDTAVYYCAADGYDQWGRVGVYLIWTSYDYWGQGTQVTVSS,high polyreactivity
28,QVQLVESGGGLVQAGGSLRLSCAASGFTFRSNAMGWYRQAPGKVRELVAAISYSGDSTYYADSVKGRFTISRDNAMNTVYLQMNSLKPEDTAVYYCNAVGSGYRSWYDYWGQGTQVTVSS,high polyreactivity
29,QVQLVESGGGLVQAGGSLRLSCAASGFTFRTYAMGWYRQAPGKERELVAAISKSGGSTYYADSVKGRFTISRDNAKNTVYLQMNSLTPEDTAVYYCNAGEASWFSLHYYWGQGTQVTVSS,high polyreactivity
30,QVQLVESGGGLVQAGGSLRLSCAASGFTFRVNAMGWYRQAPGKERELVAAISSGGGITYYADSVKGRYTISRDNAKNTVYLQMNSLKPEDTAVYYCAARENRYLERDYWGQGTQVNVSS,low polyreactivity
